Test [1] addresses T1, insulin receptor-related receptor (IRR), IRR-Fc fusion protein (extracellular region of mouse IRR) (Mus musculus, UniProt Q9WTL4).
T1 construct: with an extracellular region of mouse IRR (1-920th residues); made in house; host or cells: CHO cells
T1 sequence (Q9WTL4 27-920): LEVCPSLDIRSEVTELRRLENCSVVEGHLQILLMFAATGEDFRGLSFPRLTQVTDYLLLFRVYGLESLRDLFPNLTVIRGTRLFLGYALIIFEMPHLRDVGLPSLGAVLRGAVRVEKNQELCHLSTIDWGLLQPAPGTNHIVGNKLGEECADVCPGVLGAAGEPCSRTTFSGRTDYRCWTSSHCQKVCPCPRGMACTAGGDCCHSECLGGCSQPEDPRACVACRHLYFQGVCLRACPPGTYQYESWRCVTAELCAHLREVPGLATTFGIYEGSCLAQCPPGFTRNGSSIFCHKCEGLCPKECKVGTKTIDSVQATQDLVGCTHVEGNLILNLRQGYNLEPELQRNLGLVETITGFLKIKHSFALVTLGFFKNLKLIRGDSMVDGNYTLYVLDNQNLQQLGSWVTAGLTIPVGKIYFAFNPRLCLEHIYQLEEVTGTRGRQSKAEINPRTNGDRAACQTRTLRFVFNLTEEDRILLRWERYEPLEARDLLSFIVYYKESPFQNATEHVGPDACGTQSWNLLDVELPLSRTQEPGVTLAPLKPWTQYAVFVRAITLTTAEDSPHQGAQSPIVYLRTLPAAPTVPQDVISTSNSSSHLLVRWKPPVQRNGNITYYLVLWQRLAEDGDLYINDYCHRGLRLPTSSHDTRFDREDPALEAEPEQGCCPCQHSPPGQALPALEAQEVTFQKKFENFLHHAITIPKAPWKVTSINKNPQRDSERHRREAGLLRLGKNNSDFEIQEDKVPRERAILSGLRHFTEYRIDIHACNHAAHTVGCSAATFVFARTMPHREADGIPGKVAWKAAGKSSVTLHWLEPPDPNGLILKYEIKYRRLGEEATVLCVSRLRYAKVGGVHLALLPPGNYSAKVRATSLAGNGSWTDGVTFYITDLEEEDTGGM
In words: IRR binding activity by surface plasmon resonance (BIACORE 2000), IRR-Fc binding value minus IR-Fc binding value. Conditions: about 1/10 amount of each re-purified specimen (about 10 μg) lyophilized and dissolved in 200 μl of buffer; IR-Fc binding value subtracted from IRR-Fc binding value. An excerpt:
Determination of active fractions in the purification of the IRR ligand from a supernatant of cells expressing the IRR ligand including the rat C6 glioma cells or identification of granulins/epithelins or mutants thereof as IRR ligands can be carried out by measuring activity for binding to IRR in a sample. The binding activity to IRR of a sample specimen can be measured by using a surface plasmon resonance (SPR) measuring apparatus, for example, BIACORE (produced by Biacore). Specifically, for example, the extracellular domain of IRR is prepared as a soluble protein and immobilized on a surface of a BIACORE sensor chip. A sample specimen is sent onto the surface of the sensor chip via a micro flow system at a constant flow rate. If a molecule binding to IRR (IRR ligand) is contained in the sample specimen, the mass of the surface sensor chip is increased due to binding between IRR and IRR ligand molecules, and a shift of the SPR signal in proportion to the binding quantity can be detected as a change in the resonance unit (RU). […] When, for example, an insulin receptor (IR) protein is used as a protein other than IRR, IRR-binding activity can be measured more precisely. […]
(SPR reads the build-up and loss of mass on a sensor chip optically.)

A further test has as its target IRR (Homo sapiens, UniProt P14616). Particulars: literature report; cited from earlier work.

IRR, sequence (P14616 27-742 limits assumed, species assumed): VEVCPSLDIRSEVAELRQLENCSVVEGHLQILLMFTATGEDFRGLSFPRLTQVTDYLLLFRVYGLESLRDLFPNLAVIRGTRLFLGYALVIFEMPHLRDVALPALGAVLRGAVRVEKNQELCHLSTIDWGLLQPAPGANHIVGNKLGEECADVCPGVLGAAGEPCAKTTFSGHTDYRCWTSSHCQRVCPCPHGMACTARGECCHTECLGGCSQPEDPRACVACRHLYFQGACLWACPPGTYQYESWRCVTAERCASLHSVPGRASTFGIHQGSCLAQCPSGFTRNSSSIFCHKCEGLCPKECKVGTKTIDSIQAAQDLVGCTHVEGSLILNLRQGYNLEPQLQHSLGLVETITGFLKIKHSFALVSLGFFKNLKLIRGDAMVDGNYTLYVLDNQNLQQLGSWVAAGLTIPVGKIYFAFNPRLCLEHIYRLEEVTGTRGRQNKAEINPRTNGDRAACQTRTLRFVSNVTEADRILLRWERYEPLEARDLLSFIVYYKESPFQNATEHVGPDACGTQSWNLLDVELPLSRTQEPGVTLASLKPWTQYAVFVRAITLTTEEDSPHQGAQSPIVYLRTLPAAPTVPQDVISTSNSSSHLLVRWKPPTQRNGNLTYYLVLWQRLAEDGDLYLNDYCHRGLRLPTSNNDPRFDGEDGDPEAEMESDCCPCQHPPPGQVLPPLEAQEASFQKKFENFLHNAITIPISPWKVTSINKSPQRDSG
IRR, sequence (P14616 747-1297 limits assumed, species assumed): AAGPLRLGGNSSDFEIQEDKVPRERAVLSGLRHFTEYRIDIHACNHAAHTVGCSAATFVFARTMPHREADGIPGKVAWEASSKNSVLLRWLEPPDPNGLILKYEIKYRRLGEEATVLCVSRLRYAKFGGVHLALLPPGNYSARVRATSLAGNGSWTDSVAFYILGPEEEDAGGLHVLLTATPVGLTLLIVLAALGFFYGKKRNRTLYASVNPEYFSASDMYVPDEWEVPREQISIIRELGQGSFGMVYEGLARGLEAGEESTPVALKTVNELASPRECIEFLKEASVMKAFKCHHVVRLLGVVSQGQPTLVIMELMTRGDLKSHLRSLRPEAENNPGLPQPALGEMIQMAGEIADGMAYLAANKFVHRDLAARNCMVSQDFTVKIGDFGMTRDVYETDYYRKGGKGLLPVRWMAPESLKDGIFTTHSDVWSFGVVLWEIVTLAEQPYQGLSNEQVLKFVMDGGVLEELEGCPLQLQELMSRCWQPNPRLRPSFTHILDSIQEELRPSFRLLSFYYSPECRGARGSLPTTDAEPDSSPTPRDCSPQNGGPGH

On to “Peak 2: Re-purified IRR ligand fraction from rat C6 cell supernatant; protein of molecular weight 6135, SEQ ID NO: 4 (epithelin/granulin) (IGCDQHTSCPVGQTCCPSLKGSWACCQLPHAVCCEDRQHCCPAGYTCNVKARTCEKQ; listed as Mus musculus)”, for which the “binding activity (IRR-specific binding value, SPR resonance units)” value in test [1] worked out at 21 RU.

As for insulin, the “binding to IRR” value with IRR is “cannot bind to IRR”.

Consider “insulin-like growth factor (IGF)-1 [IGF-1]”, for which the “binding to IRR” value with IRR is reported as “cannot bind to IRR”.

B1: Peak 1: Re-purified IRR ligand fraction from rat C6 cell supernatant; proteins of molecular weights 6250 and 6321, SEQ ID NOS: 5 and 6 (epithelin/granulin) (protein, listed as Mus musculus)
chain 1: DIGCDQHTSCPVGQTCCPSLKGSWACCQLPHAVCCEDRQHCCPAGYTCNVKARTCEKN
chain 2: DIGCDQHTSCPVGQTCCPSLKGSWACCQLPHAVCCEDTQHCCPAGYTCNVKARTCEKDA
As for B1, the “binding activity (IRR-specific binding value, SPR resonance units)” value in test [1] is on record as 13 RU.

The values above are taken from patent US6872703B2, “Insulin receptor-related receptor binding protein” (Ajinomoto Co., Inc., priority 2000, dated 2005).
